Experiment [1] deals with T1, human CD30 (human, UniProt P28908 19-595).
T1 construct: The same molecule is used for CD30 on HL/ALCL/NHL cell lines; also called huCD30; TNFRSF8
T1 sequence: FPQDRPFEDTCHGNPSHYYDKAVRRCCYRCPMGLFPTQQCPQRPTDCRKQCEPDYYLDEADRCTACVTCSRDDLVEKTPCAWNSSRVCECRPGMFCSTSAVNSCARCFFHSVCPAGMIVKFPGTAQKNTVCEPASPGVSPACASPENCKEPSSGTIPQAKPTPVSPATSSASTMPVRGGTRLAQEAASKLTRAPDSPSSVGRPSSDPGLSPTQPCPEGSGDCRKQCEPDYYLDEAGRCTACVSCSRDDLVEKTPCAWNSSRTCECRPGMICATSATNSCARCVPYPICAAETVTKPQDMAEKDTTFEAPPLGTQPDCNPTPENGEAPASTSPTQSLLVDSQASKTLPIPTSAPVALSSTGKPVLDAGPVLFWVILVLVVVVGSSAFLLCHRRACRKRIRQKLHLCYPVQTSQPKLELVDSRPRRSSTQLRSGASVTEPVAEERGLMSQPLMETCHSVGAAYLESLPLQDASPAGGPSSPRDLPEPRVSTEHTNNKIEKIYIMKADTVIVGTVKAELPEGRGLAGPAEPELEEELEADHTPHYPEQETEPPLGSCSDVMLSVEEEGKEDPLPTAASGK
Put plainly: flow cytometry, DEL cells, experiment N = 2.

For experiment [2], the target named is T1, human CD30. The experiment in a line: flow cytometry, NCEB-1 cells (MCL), range of 3 tests. The method, then:
(§1) Cells (3×10⁴ cells/well) were incubated in polystyrene 96-well round-bottom plates (Greiner bio-one, cat. no. 650180) with serial dilutions of antibodies (range 0.0046 to 10 μg/mL in 3-fold dilution steps) in 50 μL staining buffer at 4° C. for 30 min. After washing twice in staining buffer, cells were incubated with 50 μL secondary antibody at 4° C. for 30 min. […] Next, cells were washed twice in staining buffer, resuspended in 100 μL staining buffer supplemented with TO-PRO-3 iodide (Thermo Fisher Scientific; cat. no. T3605; 1:8000 dilution) and analyzed on a FACSCelesta flow cytometer (BD Biosciences, USA). Live cells were gated based on FSC/SSC and absence of TOPRO-3 staining. Binding curves were analyzed by non-linear regression of log-transformed data (sigmoidal dose-response with variable slope, four parameters) using GraphPad Prism V7.02 software (GraphPad Software, San Diego, CA, USA).
(In general: Flow cytometry measures light scatter and fluorescence of single cells or particles in a stream.)

The target of experiment [3] is T1, human CD30. The experiment in a line: flow cytometry, KARPAS-299 cells (ALCL), average of 2 tests. The method, then:
as §1

Experiment [4] deals with T1, human CD30. The experiment in a line: flow cytometry, HEK293 cells transfected with human CD30. As for the experimental part:
(§2) Cells (3×10⁴ cells/well) were incubated in polystyrene 96-well round-bottom plates (Thermo Scientific, cat. no. 163320) with serial dilutions of antibodies (ranging from 0.0002 to 50 μg/mL in 4-fold dilution steps) in 50 μL staining buffer at 4° C. for 30 min. Experiments were performed in technical duplicate. After washing twice in staining buffer, cells were incubated in 50 μL secondary antibody at 4° C. for 30 min. As a secondary antibody, R-PE-conjugated goat-anti-human IgG (Jackson ImmunoResearch, UK; cat. no. 109⁻¹¹⁶-098) diluted 1:200 in staining buffer was used. Cells were washed twice in staining buffer, resuspended in 30 μL staining buffer containing 0.4% EDTA and the ToPro-3 viability marker (Invitrogen, cat. no. T3605) diluted 1:10,000. Cells were analyzed on an iQue Screener (Intellicyt Corporation, USA). Binding curves were analyzed using non-linear regression (sigmoidal dose-response with variable slope) using GraphPad Prism V9.0.0 software (GraphPad Software, San Diego, CA, USA).

The target of experiment [5] is T1, human CD30. Put plainly: flow cytometry, SUP-M2 cells (ALCL), average of 3 tests. The method, then:
as §1

Experiment [6] concerns the target T1, human CD30. Put plainly: flow cytometry, L-1236 cells (HL), average of 3 tests. The method, then: as §1
Experiment [7] has as its target T1, human CD30. Put plainly: flow cytometry, L-82 cells (ALCL), range of 2 tests. As for the experimental part:
as §1

The target in experiment [8] is T2, cynomolgus monkey (Macaca fascicularis) CD30 (cynomolgus monkey, UniProt P28908 19-595 (human entry)).
T2 construct: also called mfCD30
T2 chain: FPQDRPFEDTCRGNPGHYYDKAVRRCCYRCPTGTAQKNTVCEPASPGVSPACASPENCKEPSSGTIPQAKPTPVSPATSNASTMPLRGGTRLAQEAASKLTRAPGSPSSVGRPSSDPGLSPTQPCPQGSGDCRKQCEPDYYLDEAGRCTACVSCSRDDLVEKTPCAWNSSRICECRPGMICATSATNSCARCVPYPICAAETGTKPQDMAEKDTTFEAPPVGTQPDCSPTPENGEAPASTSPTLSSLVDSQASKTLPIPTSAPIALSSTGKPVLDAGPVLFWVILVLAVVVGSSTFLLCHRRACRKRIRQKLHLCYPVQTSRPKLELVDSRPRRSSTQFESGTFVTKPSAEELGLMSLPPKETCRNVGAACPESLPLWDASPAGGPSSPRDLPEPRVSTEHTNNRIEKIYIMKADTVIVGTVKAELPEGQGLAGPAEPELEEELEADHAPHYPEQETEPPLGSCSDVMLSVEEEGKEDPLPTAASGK
The experiment in a line: flow cytometry, HEK293 cells transfected with mfCD30. As for the experimental part:
as §2

Numbering of substitutions follows the chain as printed.

B1: bsG1-huCD3-FEALxCD30-MDX060-FEAR (bispecific antibody, human IgG1, kappa, lambda)
heavy 1: not shown
light 1: not shown
heavy 2: QVQLQQWGAGLLKPSETLSLTCAVYGGSFSAYYWSWIRQPPGKGLEWIGDINHGGGTNYNPSLKSRVTISVDTSKNQFSLKLNSVTAADTAVYYCASLTAYWGQGSLVTVSSASTKGPSVFPLAPSSKSTSGGTAALGCLVKDYFPEPVTVSWNSGALTSGVHTFPAVLQSSGLYSLSSVVTVPSSSLGTQTYICNVNHKPSNTKVDKRVEPKSCDKTHTCPPCPAPEFEGGPSVFLFPPKPKDTLMISRTPEVTCVVVAVSHEDPEVKFNWYVDGVEVHNAKTKPREEQYNSTYRVVSVLTVLHQDWLNGKEYKCKVSNKALPAPIEKTISKAKGQPREPQVYTLPPSREEMTKNQVSLTCLVKGFYPSDIAVEWESNGQPENNYKTTPPVLDSDGSFFLYSRLTVDKSRWQQGNVFSCSVMHEALHNHYTQKSLSLSPG
light 2: DIQMTQSPTSLSASVGDRVTITCRASQGISSWLTWYQQKPEKAPKSLIYAASSLQSGVPSRFSGSGSGTDFTLTISSLQPEDFATYYCQQYDSYPITFGQGTRLEIKRTVAAPSVFIFPPSDEQLKSGTASVVCLLNNFYPREAKVQWKVDNALQSGNSQESVTEQDSKDSTYSLSSTLTLSKADYEKHKVYACEVTHQGLSSPVTKSFNRGEC
notes: also called bsG1-huCD3xCD30-MDX060
In experiment [1], B1 gave an EC50 of 0.0568 µg/mL.

B2: bsG1-huCD3-FEALxCD30-MDX060-FERR (bispecific antibody, human IgG1, kappa, lambda)
heavy 1: not shown
light 1: not shown
heavy 2: B1 heavy 2 with G231R, A260D
light 2: B1 light 2
notes: Bispecific IgG1 made by controlled Fab-arm exchange; also called bsIgG1-huCD3-FEALxCD30-MDX060-FERR; bsG1-huCD3×CD30-MDX060
With B2, the EC50 in experiment [2] is 0.118 to 0.2 µg/mL; in experiment [3], 0.202 µg/mL; in experiment [5], 0.167 µg/mL; in experiment [6], 0.202 µg/mL; in experiment [7] it was 0.184 to 0.215 µg/mL. Also, the concentration for a half-maximal effect (EC50 (read off the curve)) in experiment [4] was around 0.1 µg/mL. For the same molecule, in experiment [8], the binding result is reported as “binds”.

A word on the EC50: it is the midpoint of the concentration-response curve. For orientation: EC50 (read off the curve) means the midpoint of the concentration-response curve.
